Assay results taken from paper PMC9482650, “Quantitative fragmentomics allow affinity mapping of interactomes” (Nature Communications, 2022).

T1: APBA2_1, Q99767
T1 sequence (Q99767 563-664, limits assumed, looked up): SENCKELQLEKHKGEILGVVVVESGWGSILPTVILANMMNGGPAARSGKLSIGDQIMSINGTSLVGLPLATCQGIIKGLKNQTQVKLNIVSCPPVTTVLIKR

T2: APBA3_1, O96018
T2 sequence (O96018 389-490, limits assumed, looked up): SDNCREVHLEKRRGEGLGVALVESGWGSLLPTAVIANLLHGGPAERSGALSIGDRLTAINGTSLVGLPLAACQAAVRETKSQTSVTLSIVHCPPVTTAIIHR

T3: DFNB31_2, Q9P202
T3 sequence (Q9P202 274-371, limits assumed, looked up): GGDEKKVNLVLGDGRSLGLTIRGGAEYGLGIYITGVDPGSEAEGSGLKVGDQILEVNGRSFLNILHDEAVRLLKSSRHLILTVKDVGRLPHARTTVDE

T4: DVL3, Q92997
T4 sequence (Q92997 244-331, limits assumed, looked up): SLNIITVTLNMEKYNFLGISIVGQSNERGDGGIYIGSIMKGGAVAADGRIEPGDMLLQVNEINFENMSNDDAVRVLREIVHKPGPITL

T5: HTRA3, P83110
T5 sequence (P83110 354-453, limits assumed, looked up): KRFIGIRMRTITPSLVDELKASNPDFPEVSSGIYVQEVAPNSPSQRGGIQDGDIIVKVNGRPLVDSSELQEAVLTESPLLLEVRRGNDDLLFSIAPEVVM

T6: NHERF3_3, Q5T2W1
T6 sequence (Q5T2W1 238-333, limits assumed, looked up): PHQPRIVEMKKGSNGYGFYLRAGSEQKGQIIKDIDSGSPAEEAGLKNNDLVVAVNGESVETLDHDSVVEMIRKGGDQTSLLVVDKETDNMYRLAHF

T7: PARD3B_1, Q8TEW8
T7 sequence (Q8TEW8 196-299, limits assumed, looked up): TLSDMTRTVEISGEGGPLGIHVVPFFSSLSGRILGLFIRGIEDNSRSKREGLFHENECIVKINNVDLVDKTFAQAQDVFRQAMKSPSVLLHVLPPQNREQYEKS

T8: PDZD7_3, Q9H5P4
T8 sequence (Q9H5P4 857-944, limits assumed, looked up): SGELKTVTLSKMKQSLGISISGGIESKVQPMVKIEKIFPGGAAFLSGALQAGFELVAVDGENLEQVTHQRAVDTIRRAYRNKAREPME

T9: SIPA1L2, Q9P2F8
T9 sequence (Q9P2F8 945-1036, limits assumed, looked up): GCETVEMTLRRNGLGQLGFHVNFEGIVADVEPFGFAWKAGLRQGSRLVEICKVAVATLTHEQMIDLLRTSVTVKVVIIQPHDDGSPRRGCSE

T10: SNTA1, Q13424
T10 sequence (Q13424 82-180, limits assumed, looked up): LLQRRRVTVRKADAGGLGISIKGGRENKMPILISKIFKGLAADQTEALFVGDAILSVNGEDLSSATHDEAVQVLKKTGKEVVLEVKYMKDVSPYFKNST

T11: SNTG1, Q9NSN8
T11 sequence (Q9NSN8 52-150, limits assumed, looked up): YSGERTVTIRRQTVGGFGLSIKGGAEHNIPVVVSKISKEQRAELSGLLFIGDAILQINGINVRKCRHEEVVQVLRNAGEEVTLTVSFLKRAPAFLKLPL

T12: TJP3_3, O95049
T12 sequence (O95049 375-456, limits assumed, looked up): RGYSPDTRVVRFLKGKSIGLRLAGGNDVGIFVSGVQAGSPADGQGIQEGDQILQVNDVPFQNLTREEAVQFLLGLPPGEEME


molecular target: T1, APBA2_1, Q99767; test: holdup assay; parameters: key: below the threshold = too weak to quantify, mostly under pKd 3.1 to 4; conditions: plain residues with an end cap or a label only (N-terminal biotin on a linker: ado-ado)

Binder	pKd
DTTVPESEDL [MYOZ2, Q9NPC6]	below the threshold
SAKVRTVTSV [RASL11B, Q9BPW5]	below the threshold

molecular target: T2, APBA3_1, O96018; test: holdup assay; parameters: key: below the threshold = too weak to quantify, mostly under pKd 3.1 to 4; conditions: plain residues with an end cap or a label only (N-terminal biotin on a linker: ado-ado)

Binder	pKd
DTTVPESEDL [MYOZ2, Q9NPC6]	below the threshold
SAKVRTVTSV [RASL11B, Q9BPW5]	below the threshold

molecular target: ARHGEF12, Q9NZN5-2; test: holdup assay; parameters: key: below the threshold = too weak to quantify, mostly under pKd 3.1 to 4; conditions: plain residues with an end cap or a label only (N-terminal biotin on a linker: ado-ado)
Sequence (Q9NZN5 other isoform, or with tags, fused parts or gaps): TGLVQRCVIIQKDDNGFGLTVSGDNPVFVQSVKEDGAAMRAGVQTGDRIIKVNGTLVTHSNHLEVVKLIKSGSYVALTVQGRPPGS

Binder	pKd
DTTVPESEDL [MYOZ2, Q9NPC6]	below the threshold
SAKVRTVTSV [RASL11B, Q9BPW5]	4.68

molecular target: CASK, O14936; test: holdup assay; parameters: key: below the threshold = too weak to quantify, mostly under pKd 3.1 to 4; conditions: plain residues with an end cap or a label only (N-terminal biotin on a linker: ado-ado)
Sequence (O14936 487-570): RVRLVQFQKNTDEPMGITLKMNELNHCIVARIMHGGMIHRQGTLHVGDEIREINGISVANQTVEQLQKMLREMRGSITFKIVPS

Binder	pKd
DTTVPESEDL [MYOZ2, Q9NPC6]	below the threshold
SAKVRTVTSV [RASL11B, Q9BPW5]	below the threshold

molecular target: T3, DFNB31_2, Q9P202; test: holdup assay; parameters: key: below the threshold = too weak to quantify, mostly under pKd 3.1 to 4; conditions: plain residues with an end cap or a label only (N-terminal biotin on a linker: ado-ado)

Binder	pKd
DTTVPESEDL [MYOZ2, Q9NPC6]	below the threshold
SAKVRTVTSV [RASL11B, Q9BPW5]	below the threshold

molecular target: DLG2_2, Q15700; test: holdup assay; parameters: key: below the threshold = too weak to quantify, mostly under pKd 3.1 to 4; conditions: plain residues with an end cap or a label only (N-terminal biotin on a linker: ado-ado)
Sequence (Q15700 189-283): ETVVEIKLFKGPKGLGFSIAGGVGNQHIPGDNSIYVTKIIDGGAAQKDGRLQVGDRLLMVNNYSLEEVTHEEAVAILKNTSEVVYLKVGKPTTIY

Binder	pKd
DTTVPESEDL [MYOZ2, Q9NPC6]	below the threshold
SAKVRTVTSV [RASL11B, Q9BPW5]	4.79

molecular target: T4, DVL3, Q92997; test: holdup assay; parameters: key: below the threshold = too weak to quantify, mostly under pKd 3.1 to 4; conditions: plain residues with an end cap or a label only (N-terminal biotin on a linker: ado-ado)

Binder	pKd
DTTVPESEDL [MYOZ2, Q9NPC6]	below the threshold
SAKVRTVTSV [RASL11B, Q9BPW5]	below the threshold

molecular target: GORASP1, Q9BQQ3; test: holdup assay; parameters: key: below the threshold = too weak to quantify, mostly under pKd 3.1 to 4; conditions: plain residues with an end cap or a label only (N-terminal biotin on a linker: ado-ado)
Sequence (Q9BQQ3 1-208): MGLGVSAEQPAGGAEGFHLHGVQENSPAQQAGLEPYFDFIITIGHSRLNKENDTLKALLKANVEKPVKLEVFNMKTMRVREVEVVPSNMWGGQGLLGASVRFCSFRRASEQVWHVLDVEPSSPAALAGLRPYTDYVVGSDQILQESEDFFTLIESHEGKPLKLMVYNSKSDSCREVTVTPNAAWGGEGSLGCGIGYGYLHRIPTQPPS

Binder	pKd
DTTVPESEDL [MYOZ2, Q9NPC6]	below the threshold
SAKVRTVTSV [RASL11B, Q9BPW5]	3.76

molecular target: GRIP2_3, Q9C0E4; test: holdup assay; parameters: key: below the threshold = too weak to quantify, mostly under pKd 3.1 to 4; conditions: plain residues with an end cap or a label only (N-terminal biotin on a linker: ado-ado)
Sequence (Q9C0E4 238-339): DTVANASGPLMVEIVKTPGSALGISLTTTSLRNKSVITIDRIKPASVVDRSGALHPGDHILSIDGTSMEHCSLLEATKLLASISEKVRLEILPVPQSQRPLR

Binder	pKd
DTTVPESEDL [MYOZ2, Q9NPC6]	below the threshold
SAKVRTVTSV [RASL11B, Q9BPW5]	below the threshold

molecular target: GRIP2_7, Q9C0E4; test: holdup assay; parameters: key: below the threshold = too weak to quantify, mostly under pKd 3.1 to 4; conditions: plain residues with an end cap or a label only (N-terminal biotin on a linker: ado-ado)
Sequence (Q9C0E4 934-1023): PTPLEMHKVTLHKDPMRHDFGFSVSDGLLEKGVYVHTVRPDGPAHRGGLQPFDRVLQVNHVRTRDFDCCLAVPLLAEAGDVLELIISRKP

Binder	pKd
DTTVPESEDL [MYOZ2, Q9NPC6]	below the threshold
SAKVRTVTSV [RASL11B, Q9BPW5]	below the threshold

molecular target: T5, HTRA3, P83110; test: holdup assay; parameters: key: below the threshold = too weak to quantify, mostly under pKd 3.1 to 4; conditions: plain residues with an end cap or a label only (N-terminal biotin on a linker: ado-ado)

Binder	pKd
DTTVPESEDL [MYOZ2, Q9NPC6]	below the threshold
SAKVRTVTSV [RASL11B, Q9BPW5]	below the threshold

molecular target: LIMK2, P53671; test: holdup assay; parameters: key: below the threshold = too weak to quantify, mostly under pKd 3.1 to 4; conditions: plain residues with an end cap or a label only (N-terminal biotin on a linker: ado-ado)
Sequence (P53671 143-248): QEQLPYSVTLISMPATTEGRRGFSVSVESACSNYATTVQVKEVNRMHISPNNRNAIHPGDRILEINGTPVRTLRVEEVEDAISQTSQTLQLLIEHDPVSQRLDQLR

Binder	pKd
DTTVPESEDL [MYOZ2, Q9NPC6]	below the threshold
SAKVRTVTSV [RASL11B, Q9BPW5]	below the threshold

molecular target: MAGI1_2, Q96QZ7; test: holdup assay; parameters: key: below the threshold = too weak to quantify, mostly under pKd 3.1 to 4; conditions: plain residues with an end cap or a label only (N-terminal biotin on a linker: ado-ado)
Sequence (Q96QZ7 456-580): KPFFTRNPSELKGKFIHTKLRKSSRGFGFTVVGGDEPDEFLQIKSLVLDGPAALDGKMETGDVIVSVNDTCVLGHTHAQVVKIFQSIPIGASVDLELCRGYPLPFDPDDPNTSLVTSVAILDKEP

Binder	pKd
DTTVPESEDL [MYOZ2, Q9NPC6]	below the threshold
SAKVRTVTSV [RASL11B, Q9BPW5]	5.51

molecular target: T6, NHERF3_3, Q5T2W1; test: holdup assay; parameters: key: below the threshold = too weak to quantify, mostly under pKd 3.1 to 4; conditions: plain residues with an end cap or a label only (N-terminal biotin on a linker: ado-ado)

Binder	pKd
DTTVPESEDL [MYOZ2, Q9NPC6]	below the threshold
SAKVRTVTSV [RASL11B, Q9BPW5]	below the threshold

molecular target: NHERF4_2, Q86UT5; test: holdup assay; parameters: key: below the threshold = too weak to quantify, mostly under pKd 3.1 to 4; conditions: plain residues with an end cap or a label only (N-terminal biotin on a linker: ado-ado)
Sequence (Q86UT5 220-308): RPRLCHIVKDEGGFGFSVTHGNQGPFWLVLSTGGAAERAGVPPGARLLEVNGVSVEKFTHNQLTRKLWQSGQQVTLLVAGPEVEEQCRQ

Binder	pKd
DTTVPESEDL [MYOZ2, Q9NPC6]	below the threshold
SAKVRTVTSV [RASL11B, Q9BPW5]	below the threshold

molecular target: T7, PARD3B_1, Q8TEW8; test: holdup assay; parameters: key: below the threshold = too weak to quantify, mostly under pKd 3.1 to 4; conditions: plain residues with an end cap or a label only (N-terminal biotin on a linker: ado-ado)

Binder	pKd
DTTVPESEDL [MYOZ2, Q9NPC6]	below the threshold
SAKVRTVTSV [RASL11B, Q9BPW5]	below the threshold

molecular target: PARD3_3, Q8TEW0; test: holdup assay; parameters: key: below the threshold = too weak to quantify, mostly under pKd 3.1 to 4; conditions: plain residues with an end cap or a label only (N-terminal biotin on a linker: ado-ado)
Sequence (Q8TEW0 582-685): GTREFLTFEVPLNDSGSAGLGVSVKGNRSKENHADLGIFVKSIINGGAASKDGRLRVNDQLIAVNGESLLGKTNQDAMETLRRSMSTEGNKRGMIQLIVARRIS

Binder	pKd
DTTVPESEDL [MYOZ2, Q9NPC6]	below the threshold
SAKVRTVTSV [RASL11B, Q9BPW5]	below the threshold

molecular target: T8, PDZD7_3, Q9H5P4; test: holdup assay; parameters: key: below the threshold = too weak to quantify, mostly under pKd 3.1 to 4; conditions: plain residues with an end cap or a label only (N-terminal biotin on a linker: ado-ado)

Binder	pKd
DTTVPESEDL [MYOZ2, Q9NPC6]	below the threshold
SAKVRTVTSV [RASL11B, Q9BPW5]	4.68

molecular target: SCRIB_1, Q14160; test: holdup assay; parameters: key: below the threshold = too weak to quantify, mostly under pKd 3.1 to 4; conditions: plain residues with an end cap or a label only (N-terminal biotin on a linker: ado-ado)
Sequence (Q14160 718-814): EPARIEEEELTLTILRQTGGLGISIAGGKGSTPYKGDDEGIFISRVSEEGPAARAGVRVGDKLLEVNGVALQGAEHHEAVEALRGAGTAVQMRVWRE

Binder	pKd
DTTVPESEDL [MYOZ2, Q9NPC6]	below the threshold
SAKVRTVTSV [RASL11B, Q9BPW5]	4.17

molecular target: SCRIB_3, Q14160; test: holdup assay; parameters: key: below the threshold = too weak to quantify, mostly under pKd 3.1 to 4; conditions: plain residues with an end cap or a label only (N-terminal biotin on a linker: ado-ado)
Sequence (Q14160 999-1103): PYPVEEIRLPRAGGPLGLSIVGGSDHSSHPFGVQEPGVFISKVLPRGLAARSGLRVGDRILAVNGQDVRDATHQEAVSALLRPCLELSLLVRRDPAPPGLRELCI

Binder	pKd
DTTVPESEDL [MYOZ2, Q9NPC6]	below the threshold
SAKVRTVTSV [RASL11B, Q9BPW5]	4.33

molecular target: T9, SIPA1L2, Q9P2F8; test: holdup assay; parameters: key: below the threshold = too weak to quantify, mostly under pKd 3.1 to 4; conditions: plain residues with an end cap or a label only (N-terminal biotin on a linker: ado-ado)

Binder	pKd
DTTVPESEDL [MYOZ2, Q9NPC6]	below the threshold
SAKVRTVTSV [RASL11B, Q9BPW5]	below the threshold

molecular target: T10, SNTA1, Q13424; test: holdup assay; parameters: key: below the threshold = too weak to quantify, mostly under pKd 3.1 to 4; conditions: plain residues with an end cap or a label only (N-terminal biotin on a linker: ado-ado)

Binder	pKd
DTTVPESEDL [MYOZ2, Q9NPC6]	below the threshold
SAKVRTVTSV [RASL11B, Q9BPW5]	below the threshold

molecular target: T11, SNTG1, Q9NSN8; test: holdup assay; parameters: key: below the threshold = too weak to quantify, mostly under pKd 3.1 to 4; conditions: plain residues with an end cap or a label only (N-terminal biotin on a linker: ado-ado)

Binder	pKd
DTTVPESEDL [MYOZ2, Q9NPC6]	below the threshold
SAKVRTVTSV [RASL11B, Q9BPW5]	3.62

molecular target: TJP1_2, Q07157; test: holdup assay; parameters: key: below the threshold = too weak to quantify, mostly under pKd 3.1 to 4; conditions: plain residues with an end cap or a label only (N-terminal biotin on a linker: ado-ado)
Sequence (Q07157 181-274): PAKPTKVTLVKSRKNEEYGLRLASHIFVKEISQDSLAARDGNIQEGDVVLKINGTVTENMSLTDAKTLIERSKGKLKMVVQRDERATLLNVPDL

Binder	pKd
DTTVPESEDL [MYOZ2, Q9NPC6]	below the threshold
SAKVRTVTSV [RASL11B, Q9BPW5]	below the threshold

molecular target: TJP2_1, Q9UDY2; test: holdup assay; parameters: key: below the threshold = too weak to quantify, mostly under pKd 3.1 to 4; conditions: plain residues with an end cap or a label only (N-terminal biotin on a linker: ado-ado)
Sequence (Q9UDY2 24-128): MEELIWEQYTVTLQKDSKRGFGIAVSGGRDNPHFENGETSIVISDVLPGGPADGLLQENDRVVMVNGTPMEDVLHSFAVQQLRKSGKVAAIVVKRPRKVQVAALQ

Binder	pKd
DTTVPESEDL [MYOZ2, Q9NPC6]	below the threshold
SAKVRTVTSV [RASL11B, Q9BPW5]	4.14

molecular target: T12, TJP3_3, O95049; test: holdup assay; parameters: key: below the threshold = too weak to quantify, mostly under pKd 3.1 to 4; conditions: plain residues with an end cap or a label only (N-terminal biotin on a linker: ado-ado)

Binder	pKd
DTTVPESEDL [MYOZ2, Q9NPC6]	below the threshold
SAKVRTVTSV [RASL11B, Q9BPW5]	below the threshold
